The supplement of paper PMC7125110
± gives the standard error. This sample holds only a part of the variants without activity.

B1: glmS ribozyme (parent)
chain: AUAAAAGCGCCAGAACUACAGAAAUGUAGUUGACGAGGAGGAGGUUUAUCGAAUUUUCGGCGGAUGCCUCCAAA

Experiments:
Conditions in all cases: with glucosamine-6-phosphate
[1] = variants of: B1; assay: self-cleavage kobs at 640 uM GlcN6P; higher = faster cleavage; RNA array
How it was run: (§1)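 Barcoded ribozyme variants were transcribed in situ on sequenced MiSeq chips by E. coli RNA polymerase. At 37 °C, a hybridised Cy3 probe tracked them while glucosamine-6-phosphate (40 μM to 10 mM) in HEPES/KCl/Mg(OAc)2 buffer flowed in and tiles were imaged over ~14 h. Per-tile medians of signals normalised to baseline and to non-cleaving reference variants were fit to one- or two-exponential decays, giving kobs. kcat and KM came from weighted Michaelis–Menten fits across concentrations.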

[2] = variants of: B1; assay: self-cleavage kobs at 2500 uM GlcN6P; higher = faster cleavage; RNA array
How it was run: as §1

[3] = variants of: B1; assay: self-cleavage kobs at 10000 uM GlcN6P; higher = faster cleavage; RNA array
How it was run: as §1

| Variant | self-cleavage kobs at 640 uM GlcN6P [1] | self-cleavage kobs at 2500 uM GlcN6P [2] | self-cleavage kobs at 10000 uM GlcN6P [3] |
| --- | --- | --- | --- |
| A39G C61G A64C | < 1e-05 s⁻¹ | < 1e-05 s⁻¹ |  |
| A6G A14C A48G |  | < 1e-05 s⁻¹ |  |
| A42C G43U U56A G66U | < 1e-05 s⁻¹ |  |  |
| A39U G43U C50U | < 1e-05 s⁻¹ | < 1e-05 s⁻¹ |  |
| U49C C50A C70A | 7.42e-05 ± 3.6e-05 s⁻¹ |  |  |
| G51A G62C G63C | < 1e-05 s⁻¹ |  |  |
| U57A C71U | 5.18e-05 ± 2.1e-05 s⁻¹ | 0.000132 ± 3.1e-05 s⁻¹ | 0.000407 ± 0.00015 s⁻¹ |
| A42G C58A A64U | < 1e-05 s⁻¹ | < 1e-05 s⁻¹ |  |
| A53U U56A C71U | 0.00121 ± 0.00015 s⁻¹ | 0.00323 ± 0.00064 s⁻¹ |  |
| A6C G29U G40A U49G C68U |  | < 1e-05 s⁻¹ |  |
| A6C G7U U54C |  | < 1e-05 s⁻¹ |  |
| A42U G44C | < 1e-05 s⁻¹ | < 1e-05 s⁻¹ | < 1e-05 s⁻¹ |
| G41A G51A C68G | < 1e-05 s⁻¹ |  |  |
| A42C G43U C70U | < 1e-05 s⁻¹ | < 1e-05 s⁻¹ |  |
| A42G U47G C67U | 0.00108 ± 0.00019 s⁻¹ | 0.0013 ± 0.00029 s⁻¹ |  |
| G41U C58G C61U A64U C71U | < 1e-05 s⁻¹ |  |  |
| U49C U55C | < 1e-05 s⁻¹ | < 1e-05 s⁻¹ |  |
| A6C A14G C50U |  | < 1e-05 s⁻¹ |  |
| U45G U46C C71U | 0.000925 ± 0.00024 s⁻¹ | 0.00445 ± 0.001 s⁻¹ |  |
| U69C C70G | 4.82e-05 ± 1.6e-05 s⁻¹ |  |  |
| A42C G44U A64G C68G | < 1e-05 s⁻¹ |  |  |
| G43C G51A C67U | < 1e-05 s⁻¹ |  |  |
| U47A G66C | 0.000329 ± 7.2e-05 s⁻¹ | 0.000448 ± 0.00013 s⁻¹ |  |

| Variant | self-cleavage kobs at 640 uM GlcN6P [1] | self-cleavage kobs at 2500 uM GlcN6P [2] | self-cleavage kobs at 10000 uM GlcN6P [3] |
| --- | --- | --- | --- |
| A42G A64G C70A | 4.59e-05 ± 2.2e-05 s⁻¹ | 0.000247 ± 6.8e-05 s⁻¹ |  |
| A6C C11G U49G U65C C68G |  | < 1e-05 s⁻¹ |  |
| A52C G59A U69G | < 1e-05 s⁻¹ |  |  |
| A6C G13A A39C C67U C70G |  | < 1e-05 s⁻¹ |  |
| U47C U55C | 0.00134 ± 0.00031 s⁻¹ | 0.0023 ± 0.00064 s⁻¹ |  |
| U46A C50G C58G | < 1e-05 s⁻¹ |  |  |
| A39G U46C C71U | 0.00179 ± 0.00048 s⁻¹ |  |  |
| G40U U46G U47G U55A G63U | < 1e-05 s⁻¹ | < 1e-05 s⁻¹ |  |
| A39G U47G G59C | < 1e-05 s⁻¹ |  |  |
| U56G U57G G66U | < 1e-05 s⁻¹ | < 1e-05 s⁻¹ |  |
| A39G U45A U57C | 0.000107 ± 2.6e-05 s⁻¹ | 0.000294 ± 7.7e-05 s⁻¹ |  |
| A42C U65G U69G | 0.000819 ± 0.00019 s⁻¹ | 0.00302 ± 0.00061 s⁻¹ | 0.00402 ± 0.001 s⁻¹ |
| A39U G41U A42U | 5.35e-05 ± 1.4e-05 s⁻¹ | 0.000135 ± 2.2e-05 s⁻¹ |  |
| A6C A12G U55C C70A |  | < 1e-05 s⁻¹ |  |
| G44C C70A | < 1e-05 s⁻¹ | < 1e-05 s⁻¹ | < 1e-05 s⁻¹ |
| G51U A52G G59A | < 1e-05 s⁻¹ | < 1e-05 s⁻¹ |  |
| U54A C67U C68A | 6.98e-05 ± 2.2e-05 s⁻¹ |  |  |
| U46C G51U A52G U55A C61G | < 1e-05 s⁻¹ | < 1e-05 s⁻¹ |  |
| A6C A12G A53U |  | < 1e-05 s⁻¹ |  |
| C50A G51U G59A U69A | 0.000511 ± 0.00021 s⁻¹ |  |  |
| U45G U55C C68U | < 1e-05 s⁻¹ |  |  |
| G43C G44U G60U | < 1e-05 s⁻¹ |  |  |
| U46C C67U | 0.000202 ± 5.2e-05 s⁻¹ | 0.000469 ± 0.00013 s⁻¹ | 0.000426 ± 8.9e-05 s⁻¹ |

| Variant | self-cleavage kobs at 640 uM GlcN6P [1] | self-cleavage kobs at 2500 uM GlcN6P [2] | self-cleavage kobs at 10000 uM GlcN6P [3] |
| --- | --- | --- | --- |
| C58U G59C C61U C71A | < 1e-05 s⁻¹ |  |  |
| A6G A14U U30C A48U C67G C68G |  | 7.37e-05 ± 3e-05 s⁻¹ |  |
| G63U U65C | < 1e-05 s⁻¹ | < 1e-05 s⁻¹ |  |
| U2C C61G |  | < 1e-05 s⁻¹ |  |
| C58G G62A G63C C71A | 5.92e-05 ± 2.4e-05 s⁻¹ |  |  |
| G41A U47A A52C | < 1e-05 s⁻¹ |  |  |
| A4C |  | 0.0314 ± 0.0074 s⁻¹ |  |
| U46G G63A C70G | 5.25e-05 ± 2.2e-05 s⁻¹ |  |  |
| G51U A53U U54A | < 1e-05 s⁻¹ |  | < 1e-05 s⁻¹ |
| U46G U57C | < 1e-05 s⁻¹ |  |  |
| C50G C61U G66U | 7.98e-05 ± 2.8e-05 s⁻¹ | 0.00022 ± 8e-05 s⁻¹ |  |
| G41U A48U A64C | < 1e-05 s⁻¹ | < 1e-05 s⁻¹ |  |
| U57A G63U | < 1e-05 s⁻¹ |  |  |
| G44U A64U C68A | < 1e-05 s⁻¹ |  |  |
| U49C C50U G51A | < 1e-05 s⁻¹ | < 1e-05 s⁻¹ |  |
| A1C U57C |  | 9.88e-05 ± 2.4e-05 s⁻¹ |  |
| A6G G38A C50G U57G C68U |  | 8.04e-05 ± 1.4e-05 s⁻¹ |  |
| G41U A52C C71A | < 1e-05 s⁻¹ | < 1e-05 s⁻¹ |  |
| U45A G51C G60A C71U | < 1e-05 s⁻¹ | < 1e-05 s⁻¹ |  |
| U65G U69C C71U | 6.22e-05 ± 1.6e-05 s⁻¹ | 6.97e-05 ± 2.6e-05 s⁻¹ |  |
| U57A G60A C67G | 6.42e-05 ± 2.2e-05 s⁻¹ | 0.000109 ± 3.2e-05 s⁻¹ |  |
